The values that follow come from patent publication US20250355001A1, “METHOD FOR DETECTING A TAU PROTEIN FRAGMENT IN A SAMPLE” (GTINVENT LIMITED, priority 2022, published 2025).

Data set [1] has as its target T1, hT40 (Homo sapiens, UniProt P10636).
T1 construct: Full length tau (hT40)
The experiment in a line: Sandwich ELISA limits of detection (LoD) of antibody pairs. Format: binding. The conditions noted are these: S1D12 mAb capture; hT40. The source says:
The diverse panel of high affinity anti-tau antibodies (scAb and mAb formats) were paired in various combinations and tested in a Sandwich (or Capture) ELISA format to calculate their limits of detection (LoD) and their ability to differentiate between different tau species. Biologically, tau exists in 6 different isoforms and is subjected to numerous post translational modifications, some of them playing a significant role in the progression of neurodegeneration.
For Sandwich ELISA using colourimetric detection, 96 well Maxisorp plates were coated with the capture antibody S1D12 mAb at 1 μg/ml for 1 h at RT followed by blocking with 2% MPBS as normal. Full length tau (hT40), at 1 μg/ml starting concentration was added to designated wells and double diluted across rest of the plates and left to incubate at R/T for 1 h. A series of detection scAbs with varying epitope recognition properties were added at 10 μg/ml to designated wells (FIG. 22). For colourimetric detection HRP conjugated anti-HuCk secondary antibody was used and the resulting immunoreaction was developed and absorbance at 450 nm measured as described previously. Cut-off point for a positive binding event was an absorbance value of 0.3 following background subtraction. In order to enhance the assay sensitivity, a chemiluminescent detection method was adopted where 50 μL SuperSignal ELISA Femto Substrate (Thermo Scientific) was added to each well following incubation with anti-HuCK HRP antibody and subsequent washing. The luminescence was read using Clariostar Plus microplate reader. A further modification to this protocol was done where various detection scAbs were directly conjugated with HRP and detected using chemiluminescent protocol as before. The lowest levels of detection achieved using different detection scAbs and a comparison of colourimetric and chemiluminescent methods of detection are shown in Table 28
Similarly, a sandwich ELISA format was set up using S1G2 mAb at 1 μg/ml as the capture antibody and HRP conjugated S1D12 mAb for detection. The assay was conducted using chemiluminescent protocol described above.
In general terms: ELISA stands for enzyme-linked immunosorbent assay.

Data set [2] has as its target dGAE aggregates (Homo sapiens, UniProt P10636). Nature of the data set: Sandwich ELISA on SDS/Triton X-100 treated dGAE aggregates. Format: binding. More on the design: key to LoD, 423 mAb capture, Untreated dGAE agg. / LoD, Direct immobilisation of dGAE aggregates, Untreated dGAE agg.: NB denotes no binding. The note with it: untreated aggregates. Here is the method:
We have noticed Sodium dodecyl sulphate (SDS) can break apart dGA/dGAE aggregates and separate them into smaller fragments by performing an SDS-PAGE. This has been replicated and tested using an ELISA as described below.
For aggregation, 1000 μL 100 μM dGAE+10 μL 10 mM DTT was added to a ‘LoBind’ microfuge tubes and agitated at 700 RPM/37° C. for 24 hours. Resulting sample centrifuged at 17,000×g/4° C. for 60 min and supernatant discarded to remove left over monomer. Pellet resuspended in half the original volume for future experiments and hereafter referred to as ‘aggregates’. 1 μl of aggregates was added to 1 ml of PBS and SDS was added to a final concentration of 1% (w/v). This was left to incubate on lab bench for 1 h with gentle agitation every 15 minutes. In order to neutralize the SDS effect on ELISA, Triton X-100 added to a final concentration of 3% (v/v) and mixed gently by pipetting to prevent any bubble formation. 200 μl added of this mix was to the first well of an ELISA plate coated with 1 μg/ml S1D12 mAb and blocked with 2% MPBS. Similarly aggregates treated with only SDS or Triton X-100, untreated aggregates, dGAE monomers treated with only SDS or SDS+Titon X-100 were also added to designated wells as controls. All samples were then double diluted across the plate in final volumes of 100 μl. The final column was left with no protein to act as a blank. This was allowed to stand at room temperature for 1 hour followed by the addition of detection scAb-S1G2 at 10 μg/ml. Anti-HuCk HRP labelled secondary antibody was added as described previously and ELISA data generated was represented using the graph below.

Chain of dGAE aggregates (P10636 614-708): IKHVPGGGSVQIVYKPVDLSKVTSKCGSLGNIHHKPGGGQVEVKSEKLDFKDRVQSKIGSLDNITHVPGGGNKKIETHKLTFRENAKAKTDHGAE
T1 sequence (P10636 1-441 isoform P10636-8): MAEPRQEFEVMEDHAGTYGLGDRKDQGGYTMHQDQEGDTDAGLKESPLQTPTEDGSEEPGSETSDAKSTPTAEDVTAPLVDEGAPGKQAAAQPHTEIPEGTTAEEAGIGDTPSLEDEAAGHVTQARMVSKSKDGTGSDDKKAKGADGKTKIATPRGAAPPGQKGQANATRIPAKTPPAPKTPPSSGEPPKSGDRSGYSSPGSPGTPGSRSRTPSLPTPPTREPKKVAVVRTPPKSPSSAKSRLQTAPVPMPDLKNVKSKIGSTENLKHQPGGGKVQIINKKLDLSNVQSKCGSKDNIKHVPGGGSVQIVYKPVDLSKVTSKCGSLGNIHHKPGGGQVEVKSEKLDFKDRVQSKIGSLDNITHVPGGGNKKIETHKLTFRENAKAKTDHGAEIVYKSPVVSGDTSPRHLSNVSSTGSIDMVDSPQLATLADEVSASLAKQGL

B1: S1G2: sheep-derived anti-tau core clone; scFv SEQ ID NO: 81, VH 455, VL 456 (protein)
scFv: QVQLQESGPSLVKPSQTLSLTCTVSGFSLTSNSVGWVRQAPGKAPEWVAGIDTDGEEGYNPALNSRLSITRDTSKSQVSLSLSSVTSEDTAVYYCGRSYRADGLAYGYVQAIDYWGPGLLVTVSSEGKSSGASGESKVDDQAVVTQPSSVSGSLGQRVSITCSGSFIGISSVGWFQQLPGSGLRTIIVASDGRPSGVPDRFSMSKSGNTATLTISSLQAEDEADYFCGSSDRTPYTGVFGSGTRLTVLG
modifications: S1G2 amino acid sequence
Consider B1, for which the “LoD (ng/ml) direct HRP conjugation of detection scAb & chemiluminescence” value in data set [1] was found to be 0.04 ng/mL. Further, the “LoD, Direct immobilisation of dGAE aggregates, Untreated dGAE agg.” value in data set [2] (direct immobilisation) is “NB”. In data set [2] (sandwich ELISA, 423 mAb capture), the “LoD, 423 mAb capture, Untreated dGAE agg.” value was “NB”. Moreover, the “LoD, S1D12 mAb capture, Untreated dGAE agg.” value in data set [2] (sandwich ELISA, S1D12 mAb capture) turned out to be 250 ng/mL.
